The values that follow come from publication PMC10920880, “RNA compaction and iterative scanning for small RNA targets by the Hfq chaperone”.

For data set [1], the target named is T1, Hfq:R16A (rim mutant) (Escherichia coli K12, UniProt P0A6X3 1-102, R16A). In words: smFRET; sRNA (N13)-Hfq; half as much time on distant site as WT; smFRET: 10 mM Tris-HCl pH 7.5, 50 mM NaCl, 50 mM KCl, 4 mM Trolox, 0.01% Nikkol, 0.8% glucose, RNasin, oxygen scavenger; EMSA: 1x TNK, 5% glycerol, 15 min RT, native 8% PAGE 1x TBE 4 C. Conditions: protein: recombinant; tags: none (untagged); chain copies: 6; label: tether 5' biotin, 3' Cy5; RNA 3' extension paired to DNA tether; 5' hairpin.

For data set [2], the target named is T1, Hfq:R16A (rim mutant). The data set can be described thus: smFRET; 5 nM R16A, less compaction E~0.43; smFRET: 10 mM Tris-HCl pH 7.5, 50 mM NaCl, 50 mM KCl, 4 mM Trolox, 0.01% Nikkol, 0.8% glucose, RNasin, oxygen scavenger; EMSA: 1x TNK, 5% glycerol, 15 min RT, native 8% PAGE 1x TBE 4 C. The conditions noted are these: protein: recombinant; tags: none (untagged); chain copies: 6; label: internal Cy5; tether 5' biotin, 3' Cy3 (unlabeled tether for sRNA assays); RNA 3' extension paired to DNA tether; 5' hairpin.

The target in data set [3] is Hfq:Y25D (distal face mutant) (Escherichia coli K12, UniProt P0A6X3 1-102, Y25D). In words: smFRET; 5 nM Y25D, compaction E~0.75; smFRET: 10 mM Tris-HCl pH 7.5, 50 mM NaCl, 50 mM KCl, 4 mM Trolox, 0.01% Nikkol, 0.8% glucose, RNasin, oxygen scavenger; EMSA: 1x TNK, 5% glycerol, 15 min RT, native 8% PAGE 1x TBE 4 C. Conditions: protein: recombinant; tags: none (untagged); chain copies: 6; label: internal Cy5; tether 5' biotin, 3' Cy3 (unlabeled tether for sRNA assays); RNA 3' extension paired to DNA tether; 5' hairpin. In general terms: Mobility shift assays separate free from complexed probe on a gel.

Data set [4] has as its target Hfq:TM (triple rim mutant) (Escherichia coli K12, UniProt P0A6X3 1-102, R16A;R17A;R19D). The data set can be described thus: smFRET; 5 nM TM, less compaction E~0.37; smFRET: 10 mM Tris-HCl pH 7.5, 50 mM NaCl, 50 mM KCl, 4 mM Trolox, 0.01% Nikkol, 0.8% glucose, RNasin, oxygen scavenger; EMSA: 1x TNK, 5% glycerol, 15 min RT, native 8% PAGE 1x TBE 4 C. The conditions noted are these: protein: recombinant; tags: none (untagged); chain copies: 6; label: internal Cy5; tether 5' biotin, 3' Cy3 (unlabeled tether for sRNA assays); RNA 3' extension paired to DNA tether; 5' hairpin.

B1: (AAC)4-S6-N35-S6 tandem mRNA on DNA tether (mixed)
RNA: GGACUCUAUCGAGUCCAACAACAACAACAGACCUCUCUACCAUCACCUAAACUUUACUCUACCAUCACCAGACCUCGCGCCCAGGACGACACACUUUGGACAGGACACACAGGACACAGG
DNA: CCTGTGTCCTGTGTGTCCTGTCCAAAGTGTGTCGTCC
For B1, the binding result with Hfq:R16A (rim mutant) [1] is reported as “binds”.

B2: (AAC)6-Cy5-N35-S6 mRNA on DNA tether (mixed)
RNA: GGACUCUAUCGAGUCCAACAACAACAACAACAACCCCUGCAUCACCUAAACUUUACUCUACCAUCACCAGACCUCGCGCCCAGGACGACACACUUUGGACAGGACACACAGGACACAGG
DNA: B1 DNA
modifications: internal Cy5 after nt 35
With B2, the binding result (in the data set with Hfq:R16A (rim mutant) [2]; in data set [3]; in data set [4]) was “binds” each time.
